Reference: patent publication US20120172293A1 (Takeda / Millennium, published 2012)
Non-standard residues stand in square brackets, D forms with d. *: point of attachment. X11 = ((1S)-1-carboxy-3-methylbutyl)carbamoyl, CC(C)C[C@H](NC(=O)*)C(=O)O; X10 = Tetrahydro‑2H‑pyran‑4‑yl‑carbamoyl, O=C(NC1CCOCC1)*; Phe(3-Me) = Cc1cccc(C[C@H](N)C(=O)O)c1; Phe(2-Me) = Cc1ccccc1C[C@H](N)C(=O)O; tBuAla = CC(C)(C)C[C@H](N)C(=O)O; 4Pal = N[C@@H](Cc1ccncc1)C(=O)O; Cha = N[C@@H](CC1CCCCC1)C(=O)O; Aib = CC(C)(N)C(=O)O

T1: human Y2 receptor (human, UniProt P49146 1-381)
T1 sequence (looked up): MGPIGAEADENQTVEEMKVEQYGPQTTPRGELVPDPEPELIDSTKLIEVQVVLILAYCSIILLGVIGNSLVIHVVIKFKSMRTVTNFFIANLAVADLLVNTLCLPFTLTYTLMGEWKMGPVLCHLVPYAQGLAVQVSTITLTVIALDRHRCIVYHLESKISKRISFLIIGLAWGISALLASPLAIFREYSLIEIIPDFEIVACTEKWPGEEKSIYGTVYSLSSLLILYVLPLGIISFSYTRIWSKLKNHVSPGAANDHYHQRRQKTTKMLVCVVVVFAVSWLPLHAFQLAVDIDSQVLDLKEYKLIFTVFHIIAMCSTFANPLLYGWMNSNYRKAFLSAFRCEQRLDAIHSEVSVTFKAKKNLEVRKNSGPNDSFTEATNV

B1: Ac-[D-Pro24, Cha27, Leu(Me)28, Lys30, Aib31, Phe(3Me)36]-PYY(23-36) (peptide)
peptide: Ac-S[dP]RH[Cha][tBuAla]NK[Aib]TRQR[Phe(3-Me)]-NH2
SMILES: CC(=O)N[C@@H](CO)C(=O)N1CCC[C@@H]1C(=O)N[C@@H](CCCNC(=N)N)C(=O)N[C@@H](Cc1c[nH]cn1)C(=O)N[C@@H](CC1CCCCC1)C(=O)N[C@@H](CC(C)(C)C)C(=O)N[C@@H](CC(N)=O)C(=O)N[C@@H](CCCCN)C(=O)NC(C)(C)C(=O)N[C@H](C(=O)N[C@@H](CCCNC(=N)N)C(=O)N[C@@H](CCC(N)=O)C(=O)N[C@@H](CCCNC(=N)N)C(=O)N[C@@H](Cc1cccc(C)c1)C(N)=O)[C@@H](C)O
notes: also called compound No. 258
B2: Ac-[Arg20, D-Tyr21, D-Pro24, Pya(4)26, Cha27, Aib28,31, Lys30, Phe(2Me)36]-PYY(20-36) (peptide)
peptide: Ac-R[dY]AS[dP]R[4Pal][Cha][Aib]NK[Aib]TRQR[Phe(2-Me)]-NH2
SMILES: CC(=O)N[C@@H](CCCNC(=N)N)C(=O)N[C@H](Cc1ccc(O)cc1)C(=O)N[C@@H](C)C(=O)N[C@@H](CO)C(=O)N1CCC[C@@H]1C(=O)N[C@@H](CCCNC(=N)N)C(=O)N[C@@H](Cc1ccncc1)C(=O)N[C@@H](CC1CCCCC1)C(=O)NC(C)(C)C(=O)N[C@@H](CC(N)=O)C(=O)N[C@@H](CCCCN)C(=O)NC(C)(C)C(=O)N[C@H](C(=O)N[C@@H](CCCNC(=N)N)C(=O)N[C@@H](CCC(N)=O)C(=O)N[C@@H](CCCNC(=N)N)C(=O)N[C@@H](Cc1ccccc1C)C(N)=O)[C@@H](C)O
notes: also called compound No. 261
B3: Ac-[D-Pro24, Trp26, Cha27,36, Aib28,31, Lys30]-PYY(23-36) (peptide)
peptide: Ac-S[dP]RW[Cha][Aib]NK[Aib]TRQR[Cha]-NH2
SMILES: CC(=O)N[C@@H](CO)C(=O)N1CCC[C@@H]1C(=O)N[C@@H](CCCNC(=N)N)C(=O)N[C@@H](Cc1c[nH]c2ccccc12)C(=O)N[C@@H](CC1CCCCC1)C(=O)NC(C)(C)C(=O)N[C@@H](CC(N)=O)C(=O)N[C@@H](CCCCN)C(=O)NC(C)(C)C(=O)N[C@H](C(=O)N[C@@H](CCCNC(=N)N)C(=O)N[C@@H](CCC(N)=O)C(=O)N[C@@H](CCCNC(=N)N)C(=O)N[C@@H](CC1CCCCC1)C(N)=O)[C@@H](C)O
notes: also called compound No. 347
B4: [(1S)-5-Amino-1-carboxypentyl]carbamoyl-[D-Pro24, Cha27,28,36, Aib31]-PYY(23-36) (peptide)
peptide: {((1S)-5-amino-1-carboxypentyl)carbamoyl}-S[dP]RH[Cha][Cha]NL[Aib]TRQR[Cha]-NH2
notes: calculated mass 1980.2 fits the name; also called compound No. 323
B5: Ac-[Glu23, D-Pro24, Cha27,28, Lys30, Aib31, Phe(3Me)36]-PYY(23-36) (peptide)
peptide: Ac-E[dP]RH[Cha][Cha]NK[Aib]TRQR[Phe(3-Me)]-NH2
SMILES: CC(=O)N[C@@H](CCC(=O)O)C(=O)N1CCC[C@@H]1C(=O)N[C@@H](CCCNC(=N)N)C(=O)N[C@@H](Cc1c[nH]cn1)C(=O)N[C@@H](CC1CCCCC1)C(=O)N[C@@H](CC1CCCCC1)C(=O)N[C@@H](CC(N)=O)C(=O)N[C@@H](CCCCN)C(=O)NC(C)(C)C(=O)N[C@H](C(=O)N[C@@H](CCCNC(=N)N)C(=O)N[C@@H](CCC(N)=O)C(=O)N[C@@H](CCCNC(=N)N)C(=O)N[C@@H](Cc1cccc(C)c1)C(N)=O)[C@@H](C)O
notes: also called compound No. 259
B6: Tetrahydro-2H-pyran-4-yl-carbamoyl-[Glu23, D-Pro24, Cha27,28,36, Lys30, Aib31]-PYY(23-36) (peptide)
peptide: X10-E[dP]RH[Cha][Cha]NK[Aib]TRQR[Cha]-NH2
SMILES: C[C@@H](O)[C@H](NC(=O)C(C)(C)NC(=O)[C@H](CCCCN)NC(=O)[C@H](CC(N)=O)NC(=O)[C@H](CC1CCCCC1)NC(=O)[C@H](CC1CCCCC1)NC(=O)[C@H](Cc1c[nH]cn1)NC(=O)[C@H](CCCNC(=N)N)NC(=O)[C@H]1CCCN1C(=O)[C@H](CCC(=O)O)NC(=O)NC1CCOCC1)C(=O)N[C@@H](CCCNC(=N)N)C(=O)N[C@@H](CCC(N)=O)C(=O)N[C@@H](CCCNC(=N)N)C(=O)N[C@@H](CC1CCCCC1)C(N)=O
notes: also called compound No. 230
B7: Ac-[Glu23, D-Pro24, Cha27,28, Lys30, Aib31, Phe(2Me)36]-PYY(23-36) (peptide)
peptide: Ac-E[dP]RH[Cha][Cha]NK[Aib]TRQR[Phe(2-Me)]-NH2
SMILES: CC(=O)N[C@@H](CCC(=O)O)C(=O)N1CCC[C@@H]1C(=O)N[C@@H](CCCNC(=N)N)C(=O)N[C@@H](Cc1c[nH]cn1)C(=O)N[C@@H](CC1CCCCC1)C(=O)N[C@@H](CC1CCCCC1)C(=O)N[C@@H](CC(N)=O)C(=O)N[C@@H](CCCCN)C(=O)NC(C)(C)C(=O)N[C@H](C(=O)N[C@@H](CCCNC(=N)N)C(=O)N[C@@H](CCC(N)=O)C(=O)N[C@@H](CCCNC(=N)N)C(=O)N[C@@H](Cc1ccccc1C)C(N)=O)[C@@H](C)O
notes: also called compound No. 256
B8: [(1S)-1-carboxy-3-methylbutyl]carbamoyl-[Glu23, D-Pro24, Cha27,28,36, Lys30, Aib31]-PYY(23-36) (peptide)
peptide: X11-E[dP]RH[Cha][Cha]NK[Aib]TRQR[Cha]-NH2
SMILES: CC(C)C[C@H](NC(=O)N[C@@H](CCC(=O)O)C(=O)N1CCC[C@@H]1C(=O)N[C@@H](CCCNC(=N)N)C(=O)N[C@@H](Cc1c[nH]cn1)C(=O)N[C@@H](CC1CCCCC1)C(=O)N[C@@H](CC1CCCCC1)C(=O)N[C@@H](CC(N)=O)C(=O)N[C@@H](CCCCN)C(=O)NC(C)(C)C(=O)N[C@H](C(=O)N[C@@H](CCCNC(=N)N)C(=O)N[C@@H](CCC(N)=O)C(=O)N[C@@H](CCCNC(=N)N)C(=O)N[C@@H](CC1CCCCC1)C(N)=O)[C@@H](C)O)C(=O)O
notes: also called compound No. 254
B9: Ac-[D-Pro24, Tyr26, Cha27,36, Aib28,31, Lys30]-PYY(23-36) (peptide)
peptide: Ac-S[dP]RY[Cha][Aib]NK[Aib]TRQR[Cha]-NH2
SMILES: CC(=O)N[C@@H](CO)C(=O)N1CCC[C@@H]1C(=O)N[C@@H](CCCNC(=N)N)C(=O)N[C@@H](Cc1ccc(O)cc1)C(=O)N[C@@H](CC1CCCCC1)C(=O)NC(C)(C)C(=O)N[C@@H](CC(N)=O)C(=O)N[C@@H](CCCCN)C(=O)NC(C)(C)C(=O)N[C@H](C(=O)N[C@@H](CCCNC(=N)N)C(=O)N[C@@H](CCC(N)=O)C(=O)N[C@@H](CCCNC(=N)N)C(=O)N[C@@H](CC1CCCCC1)C(N)=O)[C@@H](C)O
notes: also called compound No. 346
B10: Ac-[Arg20, D-Tyr21, D-Pro24, Pya(4)26, Cha27, Aib28,31, Lys30, Phe(3Me)36]-PYY(20-36) (peptide)
peptide: Ac-R[dY]AS[dP]R[4Pal][Cha][Aib]NK[Aib]TRQR[Phe(3-Me)]-NH2
SMILES: CC(=O)N[C@@H](CCCNC(=N)N)C(=O)N[C@H](Cc1ccc(O)cc1)C(=O)N[C@@H](C)C(=O)N[C@@H](CO)C(=O)N1CCC[C@@H]1C(=O)N[C@@H](CCCNC(=N)N)C(=O)N[C@@H](Cc1ccncc1)C(=O)N[C@@H](CC1CCCCC1)C(=O)NC(C)(C)C(=O)N[C@@H](CC(N)=O)C(=O)N[C@@H](CCCCN)C(=O)NC(C)(C)C(=O)N[C@H](C(=O)N[C@@H](CCCNC(=N)N)C(=O)N[C@@H](CCC(N)=O)C(=O)N[C@@H](CCCNC(=N)N)C(=O)N[C@@H](Cc1cccc(C)c1)C(N)=O)[C@@H](C)O
notes: also called compound No. 262
B11: [(1S)-1-carboxy-3-methylbutyl]carbamoyl-[D-Pro24, Cha27,36, Leu(Me)28, Lys30, Aib31]-PYY(23-36) (peptide)
peptide: X11-S[dP]RH[Cha][tBuAla]NK[Aib]TRQR[Cha]-NH2
SMILES: CC(C)C[C@H](NC(=O)N[C@@H](CO)C(=O)N1CCC[C@@H]1C(=O)N[C@@H](CCCNC(=N)N)C(=O)N[C@@H](Cc1c[nH]cn1)C(=O)N[C@@H](CC1CCCCC1)C(=O)N[C@@H](CC(C)(C)C)C(=O)N[C@@H](CC(N)=O)C(=O)N[C@@H](CCCCN)C(=O)NC(C)(C)C(=O)N[C@H](C(=O)N[C@@H](CCCNC(=N)N)C(=O)N[C@@H](CCC(N)=O)C(=O)N[C@@H](CCCNC(=N)N)C(=O)N[C@@H](CC1CCCCC1)C(N)=O)[C@@H](C)O)C(=O)O
notes: also called compound No. 253
B12: Ac-[D-Pro24, Cha27, Leu(Me)28, Lys30, Aib31, Phe(2Me)36]-PYY(23-36) (peptide)
peptide: Ac-S[dP]RH[Cha][tBuAla]NK[Aib]TRQR[Phe(2-Me)]-NH2
SMILES: CC(=O)N[C@@H](CO)C(=O)N1CCC[C@@H]1C(=O)N[C@@H](CCCNC(=N)N)C(=O)N[C@@H](Cc1c[nH]cn1)C(=O)N[C@@H](CC1CCCCC1)C(=O)N[C@@H](CC(C)(C)C)C(=O)N[C@@H](CC(N)=O)C(=O)N[C@@H](CCCCN)C(=O)NC(C)(C)C(=O)N[C@H](C(=O)N[C@@H](CCCNC(=N)N)C(=O)N[C@@H](CCC(N)=O)C(=O)N[C@@H](CCCNC(=N)N)C(=O)N[C@@H](Cc1ccccc1C)C(N)=O)[C@@H](C)O
notes: also called compound No. 255

Target: T1, human Y2 receptor
Experiment: cell-based or functional assay

Binder	GBA EC50 Ratio ([35S]GTPγS binding)
B1	0.78 EC50 compound/EC50 PYY(3-36)
B2	0.81 EC50 compound/EC50 PYY(3-36)
B3	1.3 EC50 compound/EC50 PYY(3-36)
B4	0.95 EC50 compound/EC50 PYY(3-36)
B5	0.93 EC50 compound/EC50 PYY(3-36)
B6	2.5 EC50 compound/EC50 PYY(3-36)
B7	1.2 EC50 compound/EC50 PYY(3-36)
B8	1.5 EC50 compound/EC50 PYY(3-36)
B9	1.3 EC50 compound/EC50 PYY(3-36)
B10	1.7 EC50 compound/EC50 PYY(3-36)
B11	0.85 EC50 compound/EC50 PYY(3-36)
B12	0.86 EC50 compound/EC50 PYY(3-36)

Target: T1, human Y2 receptor
Experiment: RBA: displacement of [125I]-PYY from hY2R/CHO membranes
Procedure: After incubation at room temperature for 60 minutes, the mixture was filtered through the cell harvester FilterMate (PerkinElmer) using UniFilter-96 GF/C treated with polyethylenimine (PEI) solution (20 mM Tris, 0.3% PEI, pH 7.4), and the filter was washed 3 times with a filtering buffer (50 mM Tris, 5 mM MgCl₂, 150 mM NaCl, 0.03% NaN₃, 0.05% CHAPS, pH 7.4). Thereafter, UniFilter-96 GF/C was dried in a mechanical drier for 1 hour, 15 μl of the liquid scintillator MicroScint O (PerkinElmer) was added to each well, and a measurement was taken using TopCount (PerkinElmer). The data obtained were analyzed using Prism to calculate the IC₅₀ value.

Binder	IC50 Ratio
B1	0.61 IC50 compound/IC50 PYY(3-36)
B2	0.54 IC50 compound/IC50 PYY(3-36)
B3	0.76 IC50 compound/IC50 PYY(3-36)
B4	1.3 IC50 compound/IC50 PYY(3-36)
B5	1.1 IC50 compound/IC50 PYY(3-36)
B6	0.89 IC50 compound/IC50 PYY(3-36)
B7	1.7 IC50 compound/IC50 PYY(3-36)
B8	2.8 IC50 compound/IC50 PYY(3-36)
B9	1 IC50 compound/IC50 PYY(3-36)
B10	0.5 IC50 compound/IC50 PYY(3-36)
B11	1.1 IC50 compound/IC50 PYY(3-36)
B12	0.8 IC50 compound/IC50 PYY(3-36)
